Measurements: the Immune Epitope Database (IEDB)

Each sequence was assayed against HLA-A*02:01 (assay: IEDB peptide-MHC binding, purified MHC/competitive/radioactivity; ≥ and ≤ were set here for values at or beyond the usual limits of such assays). Conditions: source organism: Mycobacterium tuberculosis H37Rv.

First: QAQTRHPAT
Second: AYGSFVRTV
The IC50 of the first is higher: at least 250 µM for the first, 13 µM for the second.

Going from ALLALTRAI to RTVSLPVGA, the IC50 rises from 0.42 µM to 2.5 µM (6-fold).

Compared with HVYAHQAQT, LTRAILIRV is 9.6-fold higher in IC50: 5.5 µM for the first, 53 µM for the second.

First: TEVGQDQYV
Second: ELAAEPTEV
The IC50 of the first is higher: at least 250 µM for the first, 1.8 µM for the second. The second is the more potent here.

First: GLWLSVAAV
Second: GSFVRTVSL
The IC50 of the first is 540-fold lower: 0.11 µM for the first, 59 µM for the second.
